B1: Δ102-108: AnxA2 deletion of aa 102-108 (protein)
chain: MSTVHEILCKLSLEGDHSTPPSAYGSVKAYTNFDAERDALNIETAIKTKGVDEVTIVNILTNRSNAQRQDIAFAYQRRTKKELASALKSALSGHLETVILGYDASELKASMKGLGTDEDSLIEIICSRTNQELQEINRVYKEMYKTDLEKDIISDTSGDFRKLMVALAKGRRAEDGSVIDYELIDQDARDLYDAGVKRKGTDVPKWISIMTERSVPHLQKVFDRYKSYSPYDMLESIRKEVKGDLENAFLNLVQCIQNKPLYFADRLYDSMKGKGTRDKVLIRIMVSRSEVDMLKIRSEFKRKYGKSLYYYIQQDTKGDYQKALLYLCGGDDYPYDVPDYA
B2: 80KKELA>GKPLD: AnxA2 with 80KKELA84 replaced by AnxA1 loop sequence 89GKPLD93 (protein, UniProt P07355 2-339, looked up, variant K80G E82P A84D)
Annexin A2: STVHEILCKLSLEGDHSTPPSAYGSVKAYTNFDAERDALNIETAIKTKGVDEVTIVNILTNRSNAQRQDIAFAYQRRTGKPLDSALKSALSGHLETVILGLLKTPAQYDASELKASMKGLGTDEDSLIEIICSRTNQELQEINRVYKEMYKTDLEKDIISDTSGDFRKLMVALAKGRRAEDGSVIDYELIDQDARDLYDAGVKRKGTDVPKWISIMTERSVPHLQKVFDRYKSYSPYDMLESIRKEVKGDLENAFLNLVQCIQNKPLYFADRLYDSMKGKGTRDKVLIRIMVSRSEVDMLKIRSEFKRKYGKSLYYYIQQDTKGDYQKALLYLCGGDD
B3: ^77AATAK^81: AnxA2 point mutant 77RRTKK81 to AATAK (protein)
chain: MSTVHEILCKLSLEGDHSTPPSAYGSVKAYTNFDAERDALNIETAIKTKGVDEVTIVNILTNRSNAQRQDIAFAYQAATAKELASALKSALSGHLETVILGLLKTPAQYDASELKASMKGLGTDEDSLIEIICSRTNQELQEINRVYKEMYKTDLEKDIISDTSGDFRKLMVALAKGRRAEDGSVIDYELIDQDARDLYDAGVKRKGTDVPKWISIMTERSVPHLQKVFDRYKSYSPYDMLESIRKEVKGDLENAFLNLVQCIQNKPLYFADRLYDSMKGKGTRDKVLIRIMVSRSEVDMLKIRSEFKRKYGKSLYYYIQQDTKGDYQKALLYLCGGDDYPYDVPDYA
B4: 77AATAA81: AnxA2 point mutant 77RRTKK81 to AATAA (protein)
chain: MSTVHEILCKLSLEGDHSTPPSAYGSVKAYTNFDAERDALNIETAIKTKGVDEVTIVNILTNRSNAQRQDIAFAYQAATAAELASALKSALSGHLETVILGLLKTPAQYDASELKASMKGLGTDEDSLIEIICSRTNQELQEINRVYKEMYKTDLEKDIISDTSGDFRKLMVALAKGRRAEDGSVIDYELIDQDARDLYDAGVKRKGTDVPKWISIMTERSVPHLQKVFDRYKSYSPYDMLESIRKEVKGDLENAFLNLVQCIQNKPLYFADRLYDSMKGKGTRDKVLIRIMVSRSEVDMLKIRSEFKRKYGKSLYYYIQQDTKGDYQKALLYLCGGDDYPYDVPDYA
B5: 77AATAAELASALA88: AnxA2 point mutant 77…88 to AATAAELASALA (protein)
chain: MSTVHEILCKLSLEGDHSTPPSAYGSVKAYTNFDAERDALNIETAIKTKGVDEVTIVNILTNRSNAQRQDIAFAYQAATAAELASALASALSGHLETVILGLLKTPAQYDASELKASMKGLGTDEDSLIEIICSRTNQELQEINRVYKEMYKTDLEKDIISDTSGDFRKLMVALAKGRRAEDGSVIDYELIDQDARDLYDAGVKRKGTDVPKWISIMTERSVPHLQKVFDRYKSYSPYDMLESIRKEVKGDLENAFLNLVQCIQNKPLYFADRLYDSMKGKGTRDKVLIRIMVSRSEVDMLKIRSEFKRKYGKSLYYYIQQDTKGDYQKALLYLCGGDDYPYDVPDYA
notes: AnxA2 point mutant 77…88 to …
B6: K28S+D34N+E36S: AnxA2 with Lys28, Asp34, Glu36 replaced by AnxA1 Ser, Asn, Ser (protein)
chain: MSTVHEILCKLSLEGDHSTPPSAYGSVSAYTNFNASRDALNIETAIKTKGVDEVTIVNILTNRSNAQRQDIAFAYQRRTKKELASALKSALSGHLETVILGLLKTPAQYDASELKASMKGLGTDEDSLIEIICSRTNQELQEINRVYKEMYKTDLEKDIISDTSGDFRKLMVALAKGRRAEDGSVIDYELIDQDARDLYDAGVKRKGTDVPKWISIMTERSVPHLQKVFDRYKSYSPYDMLESIRKEVKGDLENAFLNLVQCIQNKPLYFADRLYDSMKGKGTRDKVLIRIMVSRSEVDMLKIRSEFKRKYGKSLYYYIQQDTKGDYQKALLYLCGGDD
B7: R37S+E43H+K47M: AnxA2 with Arg37, Glu43, Lys47 replaced by AnxA1 Ser, His, Met (protein)
chain: MSTVHEILCKLSLEGDHSTPPSAYGSVKAYTNFDAESDALNIHTAIMTKGVDEVTIVNILTNRSNAQRQDIAFAYQRRTKKELASALKSALSGHLETVILGLLKTPAQYDASELKASMKGLGTDEDSLIEIICSRTNQELQEINRVYKEMYKTDLEKDIISDTSGDFRKLMVALAKGRRAEDGSVIDYELIDQDARDLYDAGVKRKGTDVPKWISIMTERSVPHLQKVFDRYKSYSPYDMLESIRKEVKGDLENAFLNLVQCIQNKPLYFADRLYDSMKGKGTRDKVLIRIMVSRSEVDMLKIRSEFKRKYGKSLYYYIQQDTKGDYQKALLYLCGGDD
B8: SW49-75: AnxA2 segment aa 49-75 swapped with AnxA1 aa 58-84 (protein)
chain: MSTVHEILCKLSLEGDHSTPPSAYGSVKAYTNFDAERDALNIETAIKTKGVDEATIIDILTKRNNAQRQQIKAAYQRRTKKELASALKSALSGHLETVILGLLKTPAQYDASELKASMKGLGTDEDSLIEIICSRTNQELQEINRVYKEMYKTDLEKDIISDTSGDFRKLMVALAKGRRAEDGSVIDYELIDQDARDLYDAGVKRKGTDVPKWISIMTERSVPHLQKVFDRYKSYSPYDMLESIRKEVKGDLENAFLNLVQCIQNKPLYFADRLYDSMKGKGTRDKVLIRIMVSRSEVDMLKIRSEFKRKYGKSLYYYIQQDTKGDYQKALLYLCGGDDYPYDVPDYA
B9: Δ25-36: AnxA2 deletion of aa 25-36 (protein)
chain: MSTVHEILCKLSLEGDHSTPPSAYRDALNIETAIKTKGVDEVTIVNILTNRSNAQRQDIAFAYQRRTKKELASALKSALSGHLETVILGLLKTPAQYDASELKASMKGLGTDEDSLIEIICSRTNQELQEINRVYKEMYKTDLEKDIISDTSGDFRKLMVALAKGRRAEDGSVIDYELIDQDARDLYDAGVKRKGTDVPKWISIMTERSVPHLQKVFDRYKSYSPYDMLESIRKEVKGDLENAFLNLVQCIQNKPLYFADRLYDSMKGKGTRDKVLIRIMVSRSEVDMLKIRSEFKRKYGKSLYYYIQQDTKGDYQKALLYLCGGDDYPYDVPDYA

target: PCSK9-V5 (Homo sapiens, UniProt Q8NBP7); assay: Far Western blot with PCSK9-V5 conditioned media; assay type: binding; design: made in house; host or cells: CHO-K1 cells (conditioned medium, not purified); details: lysates of cells overexpressing the construct
Description: Lysates (20 to 30 μg protein), media or purified AnxA2-(His)6 were heated in reducing or non-reducing Laemmli sample buffer, resolved by SDS-PAGE on 8% glycine gels and electro-transferred onto nitrocellulose membranes (GE Healthcare). Following 1 h incubation in 5% skim milk in Tris-Buffered Saline-0.1% Tween (TBST), membranes where incubated with conditioned media of CHO-K1 cells overexpressing either an empty vector (pIRES-V5), PC5A-V5, CHRD-V5, pIRES-D374Y, PCSK9-V5 or its V5-tagged mutants, or incubated with purified AnxA2-(His)6 for 3 h at room temperature. […] For competition experiments, 10 μg of His-tagged PCSK9 or CHRD were added to the PCSK9-V5 media before Far Western blotting. For PCSK9 binding requirements with the ˜33 kDa protein, 1M NaCl, 10 mg/ml heparin, 1M NaCl+10 mg/ml heparin, or 100 mM EDTA were added to the PCSK9-V5 conditioned media used for Far Western blotting.
Wild type human Annexin A2 (AnxA2) (ATCC #MGC-2257) and Annexin A1 (AnxA1) (ATCC #MGC-5095) were purchased from ATCC and subcloned into NheI/SacI digested pIRES2-EGFP vector. An HA epitope ([…]) was fused by PCR mutagenesis at the C-terminus of both AnxA1 and AnxA2. Two-steps PCRs were performed on AnxA2 cDNA to introduce point mutations (N62Q; S64A; K28S+D34N+E36S; R37S+E43H+K47M; 77RRTKK (SEQ ID NO: 26)>AATAK (SEQ ID NO: 27); ^77RRTKK (SEQ ID NO: 26)>AATAA (SEQ ID NO: 28); ^77RRTKKELASALK (SEQ ID NO: 29)>^77AATAAELASALA (SEQ ID NO: 30); 80KKELA (SEQ ID NO: 31)>GKPLD (SEQ ID NO: 32)), or amino acid (aa) deletions (Δ2-24, aa 2-24; ΔR1, aa 37-108; ΔR2, aa 109-192; ΔR3, aa 193-268; ΔR4, aa 269-339; Δ25-36, aa 25-36; Δ37-48, aa 37-48; Δ49-61, aa 49-61; Δ62-75, aa 62-75; Δ37-66, aa 37-66; Δ74-88, aa 74-88; Δ82-88, aa 82-88; Δ89-101, aa 89-101; Δ102-108, aa 102-108) into pIRES2-AnxA2-EGFP vector (see Table 3 above). In addition, using PCR, the AnxA2 segment aa 49-75 was swapped with the corresponding AnxA1 segment aa 58-84 [AnxA1 (aa 58-84)>AnxA2 (aa 49-75)]. Similar swaps were performed for the corresponding AnxA2 sequence with AnxA1 (AnxA1>AnxA2: aa 25-27; aa 28-30; aa 31-33; aa 34-36; aa 37-39; aa 40-42; aa 43-45; aa 46-48; aa 49-75; aa 49-61; aa 62-75). All final cDNA constructs were verified by DNA sequencing.

Sequence of PCSK9-V5 (Q8NBP7 153-692): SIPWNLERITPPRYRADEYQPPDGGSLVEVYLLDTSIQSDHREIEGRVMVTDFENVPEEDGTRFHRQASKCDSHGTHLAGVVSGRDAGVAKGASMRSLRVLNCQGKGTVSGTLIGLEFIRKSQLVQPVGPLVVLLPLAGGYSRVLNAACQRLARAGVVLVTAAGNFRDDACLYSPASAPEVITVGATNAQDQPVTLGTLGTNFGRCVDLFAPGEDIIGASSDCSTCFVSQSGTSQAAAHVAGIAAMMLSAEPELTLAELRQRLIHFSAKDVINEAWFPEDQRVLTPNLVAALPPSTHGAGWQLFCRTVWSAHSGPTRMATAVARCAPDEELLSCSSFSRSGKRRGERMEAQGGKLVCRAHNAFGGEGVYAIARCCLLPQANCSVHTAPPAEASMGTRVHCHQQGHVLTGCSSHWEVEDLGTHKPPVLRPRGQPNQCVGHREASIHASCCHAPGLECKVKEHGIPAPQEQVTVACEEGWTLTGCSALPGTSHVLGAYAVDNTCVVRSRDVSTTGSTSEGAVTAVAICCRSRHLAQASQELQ
Sequence of PCSK9-V5 (Q8NBP7 31-152 partner limits assumed): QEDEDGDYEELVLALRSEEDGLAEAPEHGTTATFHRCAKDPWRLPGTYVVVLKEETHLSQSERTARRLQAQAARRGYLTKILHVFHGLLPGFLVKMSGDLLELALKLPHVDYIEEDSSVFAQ

Molecule | PCSK9-V5 binding by Far Western blot
B1 | abolished PCSK9 binding
B2 | had no appreciable effect on PCSK9 binding
B3 | is critical for the AnxA2-PCSK9 binding
B4 | is critical for the AnxA2-PCSK9 binding
B5 | abolished binding of AnxA2 to PCSK9
B6 | slightly reduced the ability of PCSK9 to bind AnxA2
B7 | significant decrease of binding
B8 | abolished
B9 | abolished PCSK9 binding

— patent publication US8673850B2, “PCSK9 inhibitors and methods of use thereof” (Institut de Recherches Cliniques de Montreal, priority 2008, dated 2014)
